Experimental data from patent US20250090663A1 (MYELOID THERAPEUTICS, published 2025).

How the values were obtained:
Mouse CD70 mFc = target: T1, Mouse CD70 mFc (mouse, UniProt O55237 45-195); test: BLI, single point; His-tagged VHH captured on HIS1K biosensor, antigen 1 uM in solution
T1 construct: not shown: mFc
T1 sequence (looked up): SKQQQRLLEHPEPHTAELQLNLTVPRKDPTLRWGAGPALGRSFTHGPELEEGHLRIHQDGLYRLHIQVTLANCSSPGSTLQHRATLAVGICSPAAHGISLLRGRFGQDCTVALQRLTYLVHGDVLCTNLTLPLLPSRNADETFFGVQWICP
Description: (§1) Next the polypeptides were characterized for CD70 binding kinetics, e.g. by affinity measurements. An affinity measurement method used in this study is illustrated in FIG. 1A, left bottom graphic image. Briefly, His-tagged VHH constructs were individually captured on HIS1K biosensors. VHH-captured biosensors were dipped in wells containing antigen and binding responses were measured. Biosensors were later dipped in buffer wells to observe the dissociation of bound antigen from the VHHs. Biosensors were regenerated and similar binding kinetic assays were performed for subsequent antigens. Single point KD analysis using BioLayer interferometry with a soluble VHH format was undertaken.

Human CD70 mFc = target: T2, Human CD70 mFc (human, UniProt P32970 39-193); test: as above
T2 construct: not shown: mFc
T2 sequence (looked up): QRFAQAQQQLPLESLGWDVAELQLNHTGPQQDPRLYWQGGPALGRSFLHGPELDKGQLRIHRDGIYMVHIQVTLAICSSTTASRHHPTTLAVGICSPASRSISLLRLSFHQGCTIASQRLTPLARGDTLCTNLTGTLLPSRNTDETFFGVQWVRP
Description: as §1

[1] = target: T3, IL13RA2 Protein, Human, Recombinant (ECD)-His tag (human, UniProt Q14627 27-343); test: BLI; biotinylated VHH captured on streptavidin biosensor, antigen 1 uM in solution
T3 construct: extracellular domain; also called human recombinant protein extracellular domain; human IL13Ra2-His6
T3 sequence: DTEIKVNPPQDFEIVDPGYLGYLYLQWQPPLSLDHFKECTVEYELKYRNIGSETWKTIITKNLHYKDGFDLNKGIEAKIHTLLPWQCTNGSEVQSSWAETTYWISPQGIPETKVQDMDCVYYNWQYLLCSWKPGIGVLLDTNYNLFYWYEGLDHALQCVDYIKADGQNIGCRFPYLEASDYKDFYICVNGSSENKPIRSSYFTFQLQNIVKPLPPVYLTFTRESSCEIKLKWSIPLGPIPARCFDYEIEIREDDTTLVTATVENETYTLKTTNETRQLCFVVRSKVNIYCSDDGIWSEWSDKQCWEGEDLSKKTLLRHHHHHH
Description: (§2) Binding Affinity for the VH domains with IL13Rα2 are calculated as follows: Biotinylated VHHs were individually captured on streptavidin biosensors. VHH-captured biosensors were dipped in wells containing antigen and the binding response was measured. Biosensors were later dipped in buffer wells to observe the dissociation of bound antigen from captured VHH. (Schematic representation of the process depicted in FIG. 26, upper left corner). In this case, the IL13RA2 protein used was human recombinant protein extracellular domain; Rhesus macaque IL13R alpha 2 protein with His tag or mouse recombinant His tagged protein or irrelevant protein His tagged were used as controls.

[2] = target: T4, IL13RA2 Protein, Rhesus macaque, His tag (Rhesus macaque, UniProt A0A5F8A9D9 27-343); test: as above
T4 construct: the summary sentence says cynomolgous; also called Rhesus macaque IL13R alpha 2 protein with His tag; cynomolgous IL 13RA2 (as the text calls it); not shown: His tag
T4 sequence: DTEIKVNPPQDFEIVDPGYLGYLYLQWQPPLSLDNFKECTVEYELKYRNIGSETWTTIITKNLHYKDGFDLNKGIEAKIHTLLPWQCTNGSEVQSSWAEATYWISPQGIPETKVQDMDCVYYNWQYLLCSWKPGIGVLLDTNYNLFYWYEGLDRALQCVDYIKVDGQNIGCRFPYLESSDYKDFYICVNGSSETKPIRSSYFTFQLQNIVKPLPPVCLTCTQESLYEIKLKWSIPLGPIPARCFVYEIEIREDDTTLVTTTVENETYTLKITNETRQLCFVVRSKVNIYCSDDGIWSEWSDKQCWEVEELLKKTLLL
Description: as §2

[3] = target: T5, IL13RA2 Protein, mouse Recombinant- His tag (mouse, UniProt O88786 22-334, limits assumed); test: as above
T5 construct: also called mouse recombinant His tagged protein; not shown: His tag
T5 sequence (looked up): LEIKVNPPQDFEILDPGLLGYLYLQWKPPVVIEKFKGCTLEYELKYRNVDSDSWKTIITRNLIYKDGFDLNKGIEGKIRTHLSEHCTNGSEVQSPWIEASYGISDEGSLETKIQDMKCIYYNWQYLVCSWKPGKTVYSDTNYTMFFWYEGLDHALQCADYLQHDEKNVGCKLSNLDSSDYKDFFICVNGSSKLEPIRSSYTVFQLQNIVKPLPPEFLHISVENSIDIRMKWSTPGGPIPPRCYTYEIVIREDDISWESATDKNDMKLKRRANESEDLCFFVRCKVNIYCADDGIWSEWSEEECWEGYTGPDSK
Description: as §2

[4] = target: T4, IL13RA2 Protein, Rhesus macaque, His tag; test: BLI; summary of Tables 9A-9C
Description: as §2

[5] = target: T5, IL13RA2 Protein, mouse Recombinant- His …; test: BLI; summary of Tables 9A-9C
Description: as §2

B1: Anti-CD70 VHH, 3HCS92 (VHH)
VHH: QVQLQESGGGLVQAGGSLRLSCAAPRSIFSINAMGWYRQAPGKQRELVAAITSGGSPTYADSVKGRFTISRDNAKNTVYLQMNSLKAEDTAVYYCATGPYGLDNALDAWGQGTQVTVSS
notes: Soluble His-tagged VHH monomer captured on HIS1K biosensors; also called H1; H1 (WT)
Binding Response (Mouse CD70 mFc): 0.03 nm | Kd (Mouse CD70 mFc): 334 nM | koff (Mouse CD70 mFc): 0.000427 s⁻¹ | kon (Mouse CD70 mFc): 1280 M⁻¹ s⁻¹ | t½ (Mouse CD70 mFc): 27 min | Binding Response (Human CD70 mFc): 0.87 nm | Kd (Human CD70 mFc): 5.29 nM | koff (Human CD70 mFc): 0.000377 s⁻¹ | kon (Human CD70 mFc): 71300 M⁻¹ s⁻¹ | t½ (Human CD70 mFc): 31 min

B2: VH57f5 (VHH)
VHH: QVQLQESGGGLVQPGGSLRLSCAASGSIFNTNGMGWYRQAPGKQRERVAGISSGGNTVYAASVEGRFTISRDNAKNTGYLQMNNLKPEDTAVYYCRVAGRQDDYWGQGTQVTVSS
modifications: biotinylated (site not stated)
notes: Expressed in E. coli and 6xHIS purified; also called VH57f5 Biotin; Anti-IL13Rα2 VH57
Binding Response [1]: 1.36 nm | Kd [1]: 1.84 nM | koff [1]: 0.000397 s⁻¹ | t½ [1]: 29 min | Binding Response [2]: 0.93 nm | Kd [2]: 112 nM | koff [2]: 0.00485 s⁻¹ | kon [2]: 41700 M⁻¹ s⁻¹ | t½ [2]: 2.4 min | Binding Response [3]: 1.17 nm | Kd [3]: 33.7 nM | koff [3]: 0.00485 s⁻¹ | kon [3]: 140000 M⁻¹ s⁻¹ | t½ [3]: 2.46 min | fold decrease in affinity compared to human counterpart [4]: ~2 fold | fold decrease in affinity compared to human counterpart [5]: ~2 fold

B3: VH36f1 (VHH)
VHH: QVQLQESGGGSVQPGGSLRLSCAASGINISSDVMEWFRQGPGEQRELVAHITTNSRTEYADFVKGRFTISRANAKNTLYLQMNGLKPEDTALYYCALRRGGRILWGQGTQVTVSS
modifications: biotinylated (site not stated)
notes: Expressed in E. coli and 6xHIS purified; also called VH36f1 Biotin; Anti-IL13Rα2 VH36
Binding Response [1]: 0.67 nm | Kd [1]: 1.3 nM | koff [1]: 0.000133 s⁻¹ | t½ [1]: 87 min | Binding Response [2]: 1.02 nm | Kd [2]: ≤ 1.44 nM | koff [2]: ≤ 0.0001 s⁻¹ | kon [2]: 69300 M⁻¹ s⁻¹ | t½ [2]: ≥ 116 min | Binding Response [3]: -0.01 nm

B4: VH52f3 (VHH)
VHH: QVQLQESGGGLVQPGGSLRLSCEVSGSIFSINRMAWYRQVPEKEREMVAQITYGDTIKYYGSAKGRFTISRDSAKNAVYLQMNSLKPEDTAVYRCNIVGVLTTGHYEDSFWGQGTQVTVPS
modifications: biotinylated (site not stated)
notes: Expressed in E. coli and 6xHIS purified; also called VH52f3 Biotin; Anti-IL13Rα2 VH52
Binding Response [1]: 0.87 nm | Kd [1]: ≤ 0.806 nM | koff [1]: ≤ 0.0001 s⁻¹ | t½ [1]: ≥ 116 min | Binding Response [2]: 1.13 nm | Kd [2]: ≤ 1.49 nM | koff [2]: ≤ 0.0001 s⁻¹ | kon [2]: 67000 M⁻¹ s⁻¹ | t½ [2]: ≥ 116 min | Binding Response [3]: -0.02 nm

B5: VH53f3 (VHH)
VHH: QVQLQESGGGLVQPGGSLRLSCEVSGSISSINRMAWYRQVPGKEREMVAQITYGDTIKYYGSAKGRFTISKDSAKNAVYLQMNSLKPEDTAVYRCNIVGVLTTGHYENSFWGQGTQVTVSS
modifications: biotinylated (site not stated)
notes: Expressed in E. coli and 6xHIS purified; also called VH53f3 Biotin; Anti-IL13Rα2 VH53
Binding Response [1]: 1.04 nm | Kd [1]: 0.89 nM | koff [1]: 0.000118 s⁻¹ | t½ [1]: 98 min | Binding Response [2]: 1.35 nm | Kd [2]: ≤ 1.42 nM | koff [2]: ≤ 0.0001 s⁻¹ | kon [2]: 70200 M⁻¹ s⁻¹ | t½ [2]: ≥ 116 min | Binding Response [3]: -0.01 nm

B6: Anti-CD70 VHH clone 3CEK186 (VHH)
VHH: QVQLQESGGGLVQTGGSLRLACTASGFTFDDYAIAWFRQAPGKEREFVAAISWSGGTTHYADSVKGRFTISRDNAKNTLYLQMSSLKPEDTAVYFCAKSLRSSPSSRWFGSRGQGTQVTVSS
notes: Soluble His-tagged VHH monomer captured on HIS1K biosensors; also called C1; C1 (WT)
Binding Response (Mouse CD70 mFc): 0.01 nm

B7: IL13Ra2_2TIG4_f3 (VHH)
VHH: QVQLQESGGGLVQPGGSLRLSCAASGRTYGMGWFRQAPGKEREFVAVGVWSSGNTYYADFARGRFTISRDNAKNTVYLQMDSLKPEDTAVYYCAAPRYSSYTTYHAAYDYWGPGTQVTVSS
modifications: biotinylated (site not stated)
notes: Expressed in E. coli and 6xHIS purified; also called IL13Ra2_2TIG4_f3-Biotin
Binding Response [1]: 0.72 nm | Kd [1]: 5.02 nM | koff [1]: 0.000697 s⁻¹ | t½ [1]: 17 min | Binding Response [2]: 1.17 nm | Kd [2]: 3.62 nM | koff [2]: 0.000388 s⁻¹ | kon [2]: 107000 M⁻¹ s⁻¹ | t½ [2]: 30 min | Binding Response [3]: -0.02 nm

B8: VH43f2 (VHH)
VHH: QVQLQESGGGLVQPGGSLRLSCTASGSIRGIGYMAWGRQGPGKPRELIATINSAGDTNYAESVKGRFTVSRDNAENTLYLQMNNLKSEDTAVYYCNARPGLQSYWGQGTQVTVSS
modifications: biotinylated (site not stated)
notes: Expressed in E. coli and 6xHIS purified; also called VH43f2-Biotin; Anti-IL13Rα2 VH43
Binding Response [1]: 0.92 nm | Kd [1]: 4.65 nM | koff [1]: 0.000941 s⁻¹ | t½ [1]: 12.3 min | Binding Response [2]: 0.96 nm | Kd [2]: 27.1 nM | koff [2]: 0.00164 s⁻¹ | kon [2]: 60500 M⁻¹ s⁻¹ | t½ [2]: 7.04 min | Binding Response [3]: -0.04 nm
